Experimental data: patent US20160207996A1 (ARGEN X N V, published 2016)

B1: 9A6 (antibody, V domains shown)
VH: EVQLVQPGAELRNPGASVKVSCKASGYTYTSAYIVWVRQAPGEGLEWMGRIDPEDGGTKYAQKFQGRVTFTADTSTNTAYVELSSLRSDDTAVYYCTAGLDYWGKGTLVTVSS
VL: ATMLTQSPGSLSVVPGESASISCKASQSLVHSDGMTYLYWLQQKPGQSPQRLIYRVSRRGSGVPDRFTGSGSGTDFTLNISDMKAEDAGVYYCAQDTYYPYSFGSGTSVEIK
B2: scFv C1 (scFv)
chain: ELQVVESGGGLVPGGSLRLSCAASGFRVSVNAMSWVRQAPGKGLEWVSHIGSGGITGYADSVKGRFTISRDSAKNTLYLQMNSLKPEDTAVYYCTKRSSGYAWGQGTQVTVSSQAGLTQLPSVSGSPGQKITISCTGSSNNIGAGYSVQWFQQVPGSPPRLLIDGATNRDSGVPDRFSDSRSGSSASLTITGLQAEDEADYYCECYDNSLRGAVFGGGTHLTVLG
B3: scFv B8 (scFv)
chain: QVQLVESGGGLVQPGGSLRLSCATSGFTFSNYYMSWVRQAPGKGPEWVSSIYSDLSTTYYADSVKGRFTISRDRAKNTLYLQMNSLKSEDTAVYYCARLSTVAGMDYWGKGTLVTVSSSYELTQSPSVSVALRQTAKITCGGTNIGSKSAQWYQQKPGQAPMLVIYGDSRRPSGIPERFSGSNSGNTATLTISGAQAEDEADYYCQVWDSSANAAVFGGGTHLTVLG
B4: scFv C5 (scFv)
chain: QLQLVESGGGLVEPGGSLRLSCAASGFTFSNYYMSWVRQAPGKGPEWVSSIYSDLSTTYYADSVKGRFTISRDRAKNTLYLQMNSLKSEDTAVYYCARLSTVAGVDYWGKGTLVTVSSSYELTQSPSVSVALRQTAKITCGGNNIGSKSAQWYQQKPGQAPVLVIYADSRRPSGIPERFSGSNSGNTATLTISGAQAEDEADYYCQVWDSSSNGAVFGGGTHLTVLG
B5: scFv C2 (scFv)
chain: QLQLVESGGGLQQPGGSLRLSCAASGFTFSSYAMGWVRQAPGKGLEWISIILNDGHRTYYTDSVKGRFTISRDNAKDTLSLQMNSLKPEDTAVYFCVKYVLNWAISDWGQGTQVTVSSQSVLTQPPSVSGSPGKTVTISCAGTSSDVGYGNYVSWYQQLPGMAPKLLIYNANKRASGITDRFSASKSGNTASLTISGLQSGDEAVYYCASYRYRDNAVFGGGTHLTVLG
B6: scFv D5 (scFv)
chain: EVQVQESGGGLVQPGGSLRLSCATSGFTFSNYYMSWVRQAPGKGPEWVSSIYSDLSTTYYADSVKGRFTISRDRAKNTLYLQMNSLKSEDTAVYYCARLSTVAGVDYWGKGTLVTVSSSYELTQSPSVSVALRQTAKITCGGNNIGDKSAQWYQQKPDQAPVLVIYADNRRPSEIPERFSGSNSGDTATLTISGAQAEDEADYYCQVWDSGANAAVFGGGTHLTVLG
B7: scFv A7 (scFv)
chain: QLQVVESGGGLVQPGGSLRLSCATSGFTFSNYYMSWVRQAPGKGPEWVSSIYSDLSTTYYADSVKGRFTISRDRAKNTLYLQMNSLKSEDTAVYYCARLSTVAGVDYWGKGTLVTVSSSYELTQSPSVSVALRQTAKITCGGNNIGSKSAQWYQQKPGQAPVLVIYADSRRPSGIPEKFSGSNSGNTATLTISGAQAEDEADYYCQVWDSSANAAVFGGGTHLTVLG
B8: scFv C3 (scFv)
chain: QVQRQESGGGLVQPGGSLRLSCATSGFTFSNYYMSWVRQAPGKGPEWVSSIYSDLSTTYYADSVKGRFTISRDRAKNTLYLQMNSLKSEDTAVYYCARLSTVAGVDYWGKGTLVTVSSSYELTQSPSVSVALRQTAKITCGGNNIGSKSAQWYQQKPGQAPVLVIYADVRRPSEIPERFSGSNSGNTATLSVSGAQAEDEADYYCQVWDSSANAAVFGGGTHLTVLG
B9: scFv C10 (scFv)
chain: EVQLVQPGAELRNPGASVKVSCKASGYTFTAYYIDWVRQAPGQGLEWMGRIDPEDGGTTYEQKFQGRVTFTADTSTSTVYVELSSLRSEDTAVYYCARSTEIPTIRYYGMDYWGKGTPVTVSSASAAASGSYELTQSPSVSVALRQTAKITCGGDNIGSKSAQWYQQKPGQAPVLVIYADSRRPSGIPERFSGSNSGNTATLTISGAQAEDEADYYCQVWDSSANAAVFGGGTHLTVLG
B10: scFv B2 (scFv)
chain: EVQLQESGGGLVQPGGSLRLSCATSGFTFSNYYMSWVRQAPGKGPEWVSSIYSDLSTTYYADSVKGRFTISRDRAKNTLSLQMNSLKSEDTAVYYCARLSTVAGVDYWGKGTLVTVSSSYELTQSPSVSVALRQTAKITCGGNNIGSKSAQWYQQKPGQAPVLVIYADSRRPSGIPERFSGSNSGNTATLTISGAQAEDEADYYCQVWDSSAAVFGGGTHLTVLG
B11: scFv D7 (scFv)
chain: QVQLVESGGGLVQPGGSLRLSCAASGFTFSWYAMSWVRQGPGKGLEWVSAINGGGGSTSYEDSVKGRFTISRDNAKNTLYLEMNSLKPEDTAVYYCARYSDGYSGSYTYTDMDYWGKGTLVTVSSQAVVTQEPSLSVSPGGTVTLTCGLSSGSVTSSNYPVWYQQTPGQAPHLLIYNTNTRHSGVPSRFSGFISGNKAALTITGAQPEDEADYYCASYRRSGRAVFGGGTHLTVLG
B12: scFv B4 (scFv)
chain: EVQVQESGPGLVKPSQTLSLTCTVSGGSITTDYSYWSWIRQPPGKGLEWMGAIAFSDTTYYSPSLKSRTSISRDTSKNQFTLQLSSVTPEDTAVYYCARLSTVAGMDYWGKGTLVTVSSASAAASGSYELTQSPSVSVALRQTAKITCGGNNIGSKSAQWYQQKPGQAPVLVIYADNRRPSEIPERFSGSNSGDTATLTISGAQAEDEADYYCQVWDSSANAAVFGGGTHLTVLG
B13: scFv C4 (scFv)
chain: QVQLQESGPGLVKPSQTLSLTCTVSGGSITTNYYYWSWIRQPPGKGLEWMGAIAYSGSTYYSPSLKSRTSISRDTSKNQFTLQLSSVTPEDTAVYYCARGYYSGSSLDFGSWGQGTQVTVSSLPVLTQPSAVSVSLGQTARITCQGGNVGSYYTSWYQQKPGQAPVLVIYKDSERPSGIPERFSGSSSGNTATLTVSGAQAEDEGDYYCQVWDSSAAVFGGGTHLTVLG
B14: scFv B5 (scFv, part only; not given: GS linker, not shown: small tags and cut ends)
scFv, part: EVQLVQPGAELRNPGASVKVSCKASGYTFTSHYIDWVRQAPGQGLEWMGRIDPEDGGTTYEQKFQGRVTFTADTSTSTVYVELSSLRSEDTAVYYCARSTEIPTIRYYGMDYWGKGTPVTVSSQSVLTQPSAVSVSLGQTARITCQGGSLGSYGANWHQQKPGQAPVLLIYGDNSRPSGIPERFSGSKSGGTATLTISGAQAEDEADYYCQSFDYSGNAVFGGGTHLTVLG
B15: scFv D8 (scFv)
chain: EVQLVESEGGSVQPGDSLRLSCAASGFSFSNAGMSWVRQAPGKGLEWVSAIIPGGYAPYYADSVKGRFTISRDNAKNTVSLQMNSLKPEDTALYYCAKYGGNWDLEVWGQGTLVTVSSQSALTQPPSVSGTLGKTVTISCTGTSSDIGGYNSVSWYQQLPGTAPKLLIYEVNKRASGIPDRFSGSKSGDTASLTISGLQSADEADYYCASYRNTRKSVFGGGTHLTVLG
B16: scFv D6 (scFv, part only; not given: GS linker, not shown: small tags and cut ends)
scFv, part: QLQLVESGGGLVQPGGSLRLSCAASGGIFDVMGWYHQAPGKQRGLVASITPAGSTNYADSVKGRFTISRDNAKNTVYLQMNSLKPDDTGVYYCYADGIDPRYGGDEFWGQGTQVTVSSSYELTQSPSVSVALRQTAKITCGGDNIGSKSAQWYQQKPGQAPVLVIYAGSRRPSGIPERFSGSNSGNTATLTVSGAQAEDEANYSCQVWDSSANASVFGGGTHLTVLG
B17: scFv A1 (scFv)
chain: QVQLVESGGGLVQPGGSLRLSCAASGFTFSSYAMTWVRQAPGKGLEWVSTITSNGDSTSYADSVKGRFTISRDNAKNTLYLQMDSLKPEDTAVYYCAKLGDGSYWFYYYGMDYWGQGTQVTVTSSSYELTQSSAVSLSLGQTARITCQGDNLGRYYVNWYQQKPGQAPVQVIYGNSNRPSGIPERFSGSSSGGTATLTISGAQAEDEADYYCQTYENSGVNLVFGGGTKLTVLG
B18: scFv A5 (scFv)
chain: ELQLVESGGGLVQPGGSLRLSCAASGSTFSTAAMSWVRQAPGKGLEWVSAISSFGASTSYADSVKGRFTISRDIAKNTLYLQMNSLKPEDAAVYYCANVGLHPSWGFTSGFWGQGTQVTVSSSSALTQPPSVSGSPGKTVTISCAGTSSDVGYGNYVSWYQQLPGMAPKLLIHDVNKRASGITDRFSGSKSGNTASLTISGLQSEDEADYYCASYRRRNEVVFGGGTHLTVLG
B19: scFv A4 (scFv)
chain: QLQVVESGGGLVQPGGSLRLSCAASGFTFDSYWMYWVRQAPGKGLEWLSAINPGGGMTYYADSVKGRFTIARDNAKNTVYLQMNSLKSEDTAVYYCAKELRGSYYYISSEYDYWGQGTQVTVSSLPVLTQPPSVSGTLGKTVTISCAGTSSDIGDYNYVSWYQQLPGTAPKLLIYKVSTRASGIPDRFSGSKSGNTASLTISGLQSEDEADYYCASYRTSNNVVFGGGTHLTVLG
B20: scFv A8 (scFv)
chain: EVQVQESGPGLVKPSQTLSLTCTVSGESITTNYYYWNWIRQPPGKALEWMGAIGDSGTTWYNPSLKSRTSISRDTSKNQFTLQLISVTPEDTAVYYCARGFYDGSSLDFASWGQGTQVTVSSLSYELTQSPSVSVALRQAAKITCGGNNIASKFVNWYQQKPGQAPILVISKDTNRPSGIPERFSGSNSGNTATLTVSGAQAEDEADYYCQVWDGSAAVFGGGTHLTVLG
B21: scFv C12 (scFv, part only; not given: GS linker, not shown: small tags and cut ends)
scFv, part: ELQVVESGGGLVPGGSLRLSCAASGFRVSVNAMSWVRQAPGKGLEWVSHIGSGGITGYADSVKGRFTISRDSAKNTLYLQMNSLKPEDTAVYYCTKRSSGYAWGQGTQVTVSSQAGLTQLPSVSGSPGQKITISCTGSSNNIGAGYSVQWFQQVPGSPPRLLIDGATNRDSGVPDRFSDSRSGSSASLTITGLQAEDEADYYWMLQQPQGVLCSAEGPI

These binders were tested against human Nav1.7 (full length) (human) (UniProt Q15858) (assay: cell-based or functional assay).
With B1 the % inhibition of inward current following P02 voltage protocol, 10 µg/ml was 16.9%, the % inhibition of inward current following P02 voltage protocol, 25 µg/ml was 28% and the % inhibition of inward current following P02 voltage protocol, 100 µg/ml was 36.2%.

What follows are binders tested against T1, Nt-GCGR-hFc (human, UniProt P47871 26-136) (assay: scFv binding ELISA, periplasmic extract on coated Nt-GCGR).
T1 construct: domain: N-terminal domain; also called Nt-GCGR-Fc; recombinant N-terminal domain of GCGR; not shown: hFc
T1 sequence (P47871 26-136): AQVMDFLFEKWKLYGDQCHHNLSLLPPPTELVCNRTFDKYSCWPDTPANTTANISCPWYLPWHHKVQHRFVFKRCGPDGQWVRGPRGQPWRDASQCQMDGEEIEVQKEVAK
For B2, the “ScFv binding ELISA signal” value was 1.54.
B3 was tested, and the “ScFv binding ELISA signal” value was 0.205.
In the case of B4, the “ScFv binding ELISA signal” value is reported as 1.88.
In the case of B5, the “ScFv binding ELISA signal” value is reported as 0.465.
B6 was tested, and the “ScFv binding ELISA signal” value was 0.268.
In the case of B7, the “ScFv binding ELISA signal” value is reported as 0.394.
In the case of B8, the “ScFv binding ELISA signal” value is reported as 0.058.
In the case of B9, the “ScFv binding ELISA signal” value is reported as 0.88.
B10 was tested, and the “ScFv binding ELISA signal” value was 0.137.
In the case of B11, the “ScFv binding ELISA signal” value is reported as 0.1.
In the case of B12, the “ScFv binding ELISA signal” value is reported as 0.476.
With B13 the “ScFv binding ELISA signal” value was 0.274.
For B14, the ScFv binding ELISA signal was 0.508.
In the case of B15, the “ScFv binding ELISA signal” value is reported as 1.14.
B16 showed a ScFv binding ELISA signal of 1.09.
For B17, the “ScFv binding ELISA signal” value was 2.18.
B18 was tested, and the “ScFv binding ELISA signal” value was 1.31.
In the case of B19, the “ScFv binding ELISA signal” value is reported as 0.342.
In the case of B20, the “ScFv binding ELISA signal” value is reported as 1.7.
B21 showed a ScFv binding ELISA signal of 2.56.
